Target: human LDL (Low Density Lipoprotein) receptor (human) (UniProt P01130)
Assay: competition by flow cytometry on A549 cells: unlabelled LDLs (varied, 16-fold excess) reduce the binding of 12G4 (30 µg/mL) to LDL-R

human LDL (Low Density Lipoprotein) receptor (human), sequence (P01130 22-860): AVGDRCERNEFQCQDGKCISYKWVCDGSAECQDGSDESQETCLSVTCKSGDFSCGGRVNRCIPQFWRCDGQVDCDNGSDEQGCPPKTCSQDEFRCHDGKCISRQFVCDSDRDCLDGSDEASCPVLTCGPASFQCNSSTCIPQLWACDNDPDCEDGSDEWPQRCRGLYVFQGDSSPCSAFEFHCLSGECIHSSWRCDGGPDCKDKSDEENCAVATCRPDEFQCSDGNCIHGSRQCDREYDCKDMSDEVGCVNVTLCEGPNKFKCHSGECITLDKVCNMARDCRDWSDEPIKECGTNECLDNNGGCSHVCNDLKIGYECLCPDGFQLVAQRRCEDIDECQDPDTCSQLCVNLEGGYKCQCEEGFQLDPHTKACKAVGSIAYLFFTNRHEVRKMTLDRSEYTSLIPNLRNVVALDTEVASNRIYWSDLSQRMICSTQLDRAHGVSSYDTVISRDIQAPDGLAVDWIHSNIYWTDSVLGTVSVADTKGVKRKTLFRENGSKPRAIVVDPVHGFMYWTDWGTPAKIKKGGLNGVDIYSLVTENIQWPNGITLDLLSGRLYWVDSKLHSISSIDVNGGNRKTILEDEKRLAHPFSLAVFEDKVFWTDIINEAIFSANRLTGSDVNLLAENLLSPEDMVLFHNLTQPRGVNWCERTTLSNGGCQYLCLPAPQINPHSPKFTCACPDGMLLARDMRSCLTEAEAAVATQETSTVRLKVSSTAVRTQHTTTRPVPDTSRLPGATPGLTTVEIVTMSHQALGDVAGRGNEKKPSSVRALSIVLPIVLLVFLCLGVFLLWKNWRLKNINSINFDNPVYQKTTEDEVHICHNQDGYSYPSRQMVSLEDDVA

- reduction in the bond: 60%
Substance: LDLs (Low Density Lipoproteins) (from UniProt P04114 28-4563) (ligand)

Reference: patent US20090175789A1
